Values belong to the molecule of their own block, whether it stands above or below them. Where a SMILES comes first, the peptide text is derived from it.
Key:
[1] = biological target: T1, MFSD1 (MFSD1WT, mmMFSD1, MFSD1-strep) (Mus musculus, UniProt Q9DC37); assay: nanoDSF thermal shift; type: binding; conditions: 5 mM ligand, pH 7.5, DDM/CHS
T1 construct: full length; N-terminal Twin-Strep-tag + HRV 3C site; Expi293F; purified in DDM/CHS; liposomes POPE:POPG:CHS for transport
T1 sequence (Q9DC37 1-464): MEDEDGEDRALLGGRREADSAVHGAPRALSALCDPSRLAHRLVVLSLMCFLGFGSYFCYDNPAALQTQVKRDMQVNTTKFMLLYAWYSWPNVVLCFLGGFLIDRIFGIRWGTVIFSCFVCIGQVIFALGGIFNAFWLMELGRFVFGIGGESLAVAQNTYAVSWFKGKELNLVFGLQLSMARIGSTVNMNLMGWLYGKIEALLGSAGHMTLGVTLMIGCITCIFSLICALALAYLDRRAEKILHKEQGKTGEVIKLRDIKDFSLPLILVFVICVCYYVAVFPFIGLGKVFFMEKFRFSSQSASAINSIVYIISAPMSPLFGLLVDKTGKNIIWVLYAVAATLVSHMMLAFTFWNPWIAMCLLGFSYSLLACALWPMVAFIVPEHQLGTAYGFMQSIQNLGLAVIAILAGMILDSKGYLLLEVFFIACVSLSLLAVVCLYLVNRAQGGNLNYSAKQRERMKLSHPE

[2] = biological target: T2, MFSD1 (MFSD1WT, mmMFSD1, MFSD1-strep) (Mus musculus, UniProt Q9DC37, Y56A); assay: proteoliposome uptake, pyranine fluorescence; type: biochemical; conditions: pH 6.8, 22 °C, valinomycin; 2.5 mM peptide
T2 construct: full length; N-terminal Twin-Strep-tag + HRV 3C site; Expi293F; purified in DDM/CHS; liposomes POPE:POPG:CHS for transport
T2 sequence (Q9DC37 1-464 Y56A): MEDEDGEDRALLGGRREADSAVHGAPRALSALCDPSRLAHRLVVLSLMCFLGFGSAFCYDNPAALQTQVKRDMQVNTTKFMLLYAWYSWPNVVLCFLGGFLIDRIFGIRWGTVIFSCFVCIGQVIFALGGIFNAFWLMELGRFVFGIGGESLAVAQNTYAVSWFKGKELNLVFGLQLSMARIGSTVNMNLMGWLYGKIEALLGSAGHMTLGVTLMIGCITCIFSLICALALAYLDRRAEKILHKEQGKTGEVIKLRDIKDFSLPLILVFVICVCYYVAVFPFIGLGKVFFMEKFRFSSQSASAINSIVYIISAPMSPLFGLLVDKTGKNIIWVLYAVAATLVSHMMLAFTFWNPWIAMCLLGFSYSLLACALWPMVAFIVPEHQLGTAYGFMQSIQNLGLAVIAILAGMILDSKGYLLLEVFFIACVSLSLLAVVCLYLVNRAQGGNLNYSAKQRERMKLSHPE

[3] = biological target: MFSD1-strep (mouse major facilitator superfamily domain containing 1 protein with N-terminal Twin-Strep-tag) (mouse) (UniProt Q9DC37)
[4] = biological target: T1, MFSD1 (MFSD1WT, mmMFSD1, MFSD1-strep); assay: nanoDSF thermal shift titration; type: binding
[5] = biological target: T3, GLMP–MFSD1 (GLMP–MFSD1-strep fusion) (Mus musculus, UniProt Q9DC37); assay: cryo-EM, […] Å map with extra density; type: binding; conditions: 20 mM His–Ala; central cavity, outward-open; peptide not unambiguously placed; model 8R8Q (called apo) built in this map
T3 construct: single-chain fusion GLMP-GSAGSAAGSGEF-MFSD1; C-terminal 3C site + Twin-Strep-tag; Expi293F; DDM/CHS; with Glycosylated lysosomal membrane protein
T3 sequence (Q9DC37 1-464): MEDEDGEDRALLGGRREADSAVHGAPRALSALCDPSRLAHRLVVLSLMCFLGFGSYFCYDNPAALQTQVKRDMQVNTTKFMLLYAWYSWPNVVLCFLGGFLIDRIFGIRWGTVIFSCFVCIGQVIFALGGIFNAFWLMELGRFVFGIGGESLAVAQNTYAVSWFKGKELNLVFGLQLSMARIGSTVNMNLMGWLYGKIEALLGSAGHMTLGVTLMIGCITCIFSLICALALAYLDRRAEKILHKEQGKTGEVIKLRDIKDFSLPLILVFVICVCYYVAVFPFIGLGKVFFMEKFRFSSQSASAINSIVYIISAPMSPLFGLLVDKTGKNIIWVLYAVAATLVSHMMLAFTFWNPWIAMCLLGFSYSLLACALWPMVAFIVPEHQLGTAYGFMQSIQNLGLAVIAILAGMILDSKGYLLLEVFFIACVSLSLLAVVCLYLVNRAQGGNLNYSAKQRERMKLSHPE
T3 sequence (Q9JHJ3 36-404 partner): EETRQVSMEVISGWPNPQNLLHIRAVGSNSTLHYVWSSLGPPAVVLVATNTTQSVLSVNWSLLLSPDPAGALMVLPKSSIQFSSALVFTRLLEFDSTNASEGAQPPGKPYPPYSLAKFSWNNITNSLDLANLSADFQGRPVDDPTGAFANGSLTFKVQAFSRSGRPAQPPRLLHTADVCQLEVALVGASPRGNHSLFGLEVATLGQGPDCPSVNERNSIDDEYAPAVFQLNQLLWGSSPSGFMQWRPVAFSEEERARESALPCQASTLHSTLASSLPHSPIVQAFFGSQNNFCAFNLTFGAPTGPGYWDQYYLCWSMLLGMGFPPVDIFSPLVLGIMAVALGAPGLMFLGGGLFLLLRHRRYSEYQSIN

[6] = substrate: C[C@H](NC(=O)[C@@H](N)CCCCN)C(=O)O; assay: TEVC current in Xenopus oocytes; type: cell-based, Mus musculus; conditions: pH 5.0, −40 mV, room temperature (20 °C), hydrobromide salt
[7] = substrate: CC(C)C[C@H](N)C(=O)N[C@@H](C)C(=O)O; assay: isotope tracer uptake, LC–MS/MS of Leu(d3) in oocytes; type: cell-based, Mus musculus; conditions: pH 5.0, room temperature, labelled compound, hydrochloride salt, Extended Data Fig. 4a legend gives 4.4 mM for the displayed fit
[8] = substrate: N[C@@H](Cc1c[nH]cn1)C(=O)N[C@@H](CO)C(=O)O; assay: proteoliposome uptake, pyranine fluorescence; type: biochemical, Mus musculus; conditions: pH 6.8, 22 °C, valinomycin-driven membrane potential approx. −100 mV
[9] = substrate: C[C@H](NC(=O)[C@@H](N)Cc1c[nH]cn1)C(=O)O; assay: proteoliposome uptake, pyranine fluorescence; type: biochemical, Mus musculus; conditions: pH 6.8, 22 °C, valinomycin-driven membrane potential approx. −100 mV
[10] = biological target: T4, MFSD1 as it stands in the GLMP–MFSD1 fusion construct (mouse, UniProt Q9DC37 1-464); assay: cryo-EM structure; purified GLMP–MFSD1 fusion in 20 mM HEPES pH 7.5, 150 mM NaCl, 0.015% DDM, 0.0015% CHS; apo (4.2 Å) and dialysed against 20 mM His–Ala (4.1 Å); outward-open conformation; conditions: both partners purified
T4 construct: mouse MFSD1, UniProt Q9DC37; C-terminal part of the fusion m3; written apart for the pair row of the structure; also called MFSD1out; source: Expi293F, transiently transfected, purified as part of GLMP–MFSD1-strep; not shown: Twin-Strep, C-terminal, kept
T4 sequence: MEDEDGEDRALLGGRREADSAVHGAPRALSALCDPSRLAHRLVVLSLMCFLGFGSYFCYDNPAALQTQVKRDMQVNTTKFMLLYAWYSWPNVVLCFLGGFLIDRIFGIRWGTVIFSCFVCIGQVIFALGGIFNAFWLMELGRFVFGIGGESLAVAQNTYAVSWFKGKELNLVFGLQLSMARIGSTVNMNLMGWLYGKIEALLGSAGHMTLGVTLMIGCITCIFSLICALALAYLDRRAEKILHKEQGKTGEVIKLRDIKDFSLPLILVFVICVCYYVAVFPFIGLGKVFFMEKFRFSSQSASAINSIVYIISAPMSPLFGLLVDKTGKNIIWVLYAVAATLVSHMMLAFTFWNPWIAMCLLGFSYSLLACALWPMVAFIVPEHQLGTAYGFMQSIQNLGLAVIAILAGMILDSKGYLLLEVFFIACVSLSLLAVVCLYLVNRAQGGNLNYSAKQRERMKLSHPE

Molecule: His–Ala dipeptide
- KM of His–Ala uptake into MFSD1 proteoliposomes (pyranine assay) [3]: 119 µM

B1: MFSD1–GLMP oocytes (MFSD1L11A/L12A-EmGFP + GLMPY400A-mKate2) (Mus musculus; L11A/L12A) (protein)
chain: MEDEDGEDRAAAGGRREADSAVHGAPRALSALCDPSRLAHRLVVLSLMCFLGFGSYFCYDNPAALQTQVKRDMQVNTTKFMLLYAWYSWPNVVLCFLGGFLIDRIFGIRWGTVIFSCFVCIGQVIFALGGIFNAFWLMELGRFVFGIGGESLAVAQNTYAVSWFKGKELNLVFGLQLSMARIGSTVNMNLMGWLYGKIEALLGSAGHMTLGVTLMIGCITCIFSLICALALAYLDRRAEKILHKEQGKTGEVIKLRDIKDFSLPLILVFVICVCYYVAVFPFIGLGKVFFMEKFRFSSQSASAINSIVYIISAPMSPLFGLLVDKTGKNIIWVLYAVAATLVSHMMLAFTFWNPWIAMCLLGFSYSLLACALWPMVAFIVPEHQLGTAYGFMQSIQNLGLAVIAILAGMILDSKGYLLLEVFFIACVSLSLLAVVCLYLVNRAQGGNLNYSAKQRERMKLSHPE
notes: heterodimer at plasma membrane of Xenopus laevis oocytes; lysosomal sorting mutants; EmGFP and mKate2 fusions; with Glycosylated lysosomal membrane protein
- Km [6]: 2600 ± 400 µM
- Km [7]: 5600 ± 1600 µM

B2: MFSD1 (MFSD1WT, mmMFSD1, MFSD1-strep) (Mus musculus) (protein)
chain: MEDEDGEDRALLGGRREADSAVHGAPRALSALCDPSRLAHRLVVLSLMCFLGFGSYFCYDNPAALQTQVKRDMQVNTTKFMLLYAWYSWPNVVLCFLGGFLIDRIFGIRWGTVIFSCFVCIGQVIFALGGIFNAFWLMELGRFVFGIGGESLAVAQNTYAVSWFKGKELNLVFGLQLSMARIGSTVNMNLMGWLYGKIEALLGSAGHMTLGVTLMIGCITCIFSLICALALAYLDRRAEKILHKEQGKTGEVIKLRDIKDFSLPLILVFVICVCYYVAVFPFIGLGKVFFMEKFRFSSQSASAINSIVYIISAPMSPLFGLLVDKTGKNIIWVLYAVAATLVSHMMLAFTFWNPWIAMCLLGFSYSLLACALWPMVAFIVPEHQLGTAYGFMQSIQNLGLAVIAILAGMILDSKGYLLLEVFFIACVSLSLLAVVCLYLVNRAQGGNLNYSAKQRERMKLSHPE
notes: full length; N-terminal Twin-Strep-tag + HRV 3C site; Expi293F; purified in DDM/CHS; liposomes POPE:POPG:CHS for transport
- Km [8]: 24.4 ± 13.5 µM
- Km [9]: 119.1 ± 59.3 µM

B3: GLMP as it stands in the GLMP–MFSD1 fusion construct (natural protein, mouse, UniProt Q9JHJ3 36-404, looked up)
chain: EETRQVSMEVISGWPNPQNLLHIRAVGSNSTLHYVWSSLGPPAVVLVATNTTQSVLSVNWSLLLSPDPAGALMVLPKSSIQFSSALVFTRLLEFDSTNASEGAQPPGKPYPPYSLAKFSWNNITNSLDLANLSADFQGRPVDDPTGAFANGSLTFKVQAFSRSGRPAQPPRLLHTADVCQLEVALVGASPRGNHSLFGLEVATLGQGPDCPSVNERNSIDDEYAPAVFQLNQLLWGSSPSGFMQWRPVAFSEEERARESALPCQASTLHSTLASSLPHSPIVQAFFGSQNNFCAFNLTFGAPTGPGYWDQYYLCWSMLLGMGFPPVDIFSPLVLGIMAVALGAPGLMFLGGGLFLLLRHRRYSEYQSIN
modifications: N-glycans on Asn85, Asn94, Asn157, Asn228 and Asn331
notes: mouse GLMP, UniProt Q9JHJ3; N-terminal part of the fusion m3; written apart for the pair row of the structure; source: Expi293F, transiently transfected, purified as part of GLMP–MFSD1-strep
- binding result [10]: binds

Now from value to molecule, other results behind:

- ΔTm [1]: 14 °C
Molecule: CC(C)C[C@H](NC(=O)[C@@H](N)CC(C)C)C(=O)O [Leu–Leu]

- uptake rate vs MFSD1WT [2]: ~ 50 % reduction
Molecule: N[C@@H](Cc1c[nH]cn1)C(=O)N[C@@H](CO)C(=O)O [His-Ser] (H-His-Ser-OH)

- Kd [4]: 6.7 ± 0.55 mM
- uptake rate vs MFSD1WT [2]: ~ 50 % reduction
Molecule: C[C@H](NC(=O)[C@@H](N)Cc1c[nH]cn1)C(=O)O [His–Ala] (H-His-Ala-OH)
- cryo-EM, 4.1 Å map with extra density [5]: revealed an additional density for GLMP–MFSD1His–Ala

Reference: paper PMC11252000, “MFSD1 with its accessory subunit GLMP functions as a general dipeptide uniporter in lysosomes” (Nature Cell Biology, 2024)
